Results on five substances are retold here after publication PMC11548879.

For data set [1], the target named is IL-33 (mouse) (mouse (endogenous in BALB/c mice and CMT-64 cells)) (UniProt Q8BVZ5).
Data set [2] has as its system HpARI1 (Heligmosomoides polygyrus bakeri). Kind of data set: EMSA. The settings on record: pH 7.5, 30 min, room temperature. For orientation: A gel shift assay detects complexes by their altered migration in electrophoresis.

Chain of UniProt Q8BVZ5 (Q8BVZ5 whole entry): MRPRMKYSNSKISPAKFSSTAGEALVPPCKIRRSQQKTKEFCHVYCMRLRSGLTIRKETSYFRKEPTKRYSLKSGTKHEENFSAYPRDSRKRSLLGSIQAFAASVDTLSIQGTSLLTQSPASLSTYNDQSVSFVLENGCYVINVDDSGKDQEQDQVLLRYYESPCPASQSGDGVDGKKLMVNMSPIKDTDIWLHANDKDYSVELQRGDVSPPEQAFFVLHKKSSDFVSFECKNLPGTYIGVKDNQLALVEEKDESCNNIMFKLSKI

In data set [1], HpARI3 (natural protein) yielded an EC50 of amplification of IL-5 production from bone marrow cells (IL-2, IL-7, freeze-thawed CMT-64 supernatants; IL-33-mediated ILC2 activation) of 1.2 ng/mL.
In data set [1], “HpARI3:2 fusion protein (CCP1 domain of HpARI3 fused to the CCP2+3 domains of HpARI2)” returned an IC50 of suppression of IL-5 production from bone marrow cells (IL-2, IL-7, freeze-thawed CMT-64 supernatants; IL-33-mediated ILC2 activation) of 1.1 ng/mL.
On the same count and under the same terms, next, HpARI2 (natural protein): 1.9 ng/mL.
With “HpARI2:3 fusion protein (CCP1 domain of HpARI2 fused to the CCP2+3 domains of HpARI3)”, the EC50 of amplification of IL-5 production from bone marrow cells (IL-2, IL-7, freeze-thawed CMT-64 supernatants; IL-33-mediated ILC2 activation) in data set [1] came to 21.5 ng/mL.
Regarding “AACTTTGCCATTGTGGAAGG / CCTTCCACAATGCCAAAGTT [IR700 EMSA oligonucleotide probe]”, the binding signal in data set [2] stood at 50 % DNA bound.
